For test [1], the target named is cell-surface mucins (on HeLa cells). As to the kind of experiment: flow cytometry on cells (anti-His staining, HeLa). The settings on record: 30 min at 4 °C in the presence of EDTA, n = 3 biologically independent replicates, read off a plot. (A flow cytometer gives signals particle by particle.)
The target is the same in test [2]. As to the kind of experiment: flow cytometry on cells; HeLa cells treated with His-tagged mucinases in cold FACS buffer (0.5% BSA in PBS) with 2 mM EDTA and 0.1% benzonase, 30 min on ice (4 °C); EDTA prevents enzyme activity; bound enzyme detected with FITC anti-His; effective (apparent) Kd from fits of normalised MFI.

Take “StcE, zinc metalloprotease (mucinase) from Escherichia coli serotype O157:H7 (from UniProt O82882) Y457W”: in test [1] (parent: est. 130 nM), the Kd came out at 120 nM. For “ddStcE^H367A (from UniProt O82882 36-898) (enzyme)”, the Kd in test [2] is 2000 nM.

Take “StcE, zinc metalloprotease (mucinase) from Escherichia coli serotype O157:H7 (from UniProt O82882) Y457A”: the Kd in test [1] (parent: est. 130 nM) is 120 nM. Take “ddStcE^W366A, engineered StcE (from UniProt O82882 36-898) (enzyme)”: the Kd in test [2] was 2000 nM.

In the case of “StcE, zinc metalloprotease (mucinase) from Escherichia coli serotype O157:H7 (from UniProt O82882) W366F”, in test [1] (parent: est. 130 nM), the Kd turned out to be 95 nM. Consider “double deletion StcE (ΔC and ΔINS) (from UniProt O82882) Y457A”, for which, in test [1] (parent: est. 1300 nM), the Kd came to 1300 nM.

These data come from PMC11018308.
